Read-outs that look alike come from different tables or passages of the source.
T1: human IL6R (R and D systems cat #227-SR/CF) (human, UniProt P08887 20-358)
T1 chain: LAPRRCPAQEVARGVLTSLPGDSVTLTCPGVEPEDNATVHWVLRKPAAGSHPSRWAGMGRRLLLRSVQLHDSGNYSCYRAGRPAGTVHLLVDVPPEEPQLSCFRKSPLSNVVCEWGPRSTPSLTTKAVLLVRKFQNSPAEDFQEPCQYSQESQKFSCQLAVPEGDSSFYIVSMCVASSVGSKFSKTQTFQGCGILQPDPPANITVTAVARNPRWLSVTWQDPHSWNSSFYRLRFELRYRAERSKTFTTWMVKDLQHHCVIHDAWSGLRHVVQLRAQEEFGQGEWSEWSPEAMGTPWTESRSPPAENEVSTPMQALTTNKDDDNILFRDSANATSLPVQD

B1: Av1 antibody (antibody, V domains shown)
VH: QVQLQESGPGLVRPSQTLSLTCTVSGYSITSDHAWSWVRQPPGRGLEWIGYISYSGITTYNPSLKSRVTISRDNSKNTLYLQMNSLRAEDTAVYYCARSLARTTAMDYWGQGSLVTVSS
VL: DIQMTQSPSSLSASVGDRVTITCRASQDISSYLNWYQQKPGKAPKLLIYYTSRLHSGVPSRFSGSGSGTDFTFTISSLQPEDIATYYCQQGNTLPYTFGQGTKVEIKR
B2: AV1-based activatable anti-IL6R antibody with Generation 1 mask Peptide 1 and substrate MMP/BV728 (antibody, V domains shown)
VH: B1 VH
VL: YRSCNWNYVSIFLDCDIQMTQSPSSLSASVGDRVTITCRASQDISSYLNWYQQKPGKAPKLLIYYTSRLHSGVPSRFSGSGSGTDFTFTISSLQPEDIATYYCQQGNTLPYTFGQGTKVEIKR

Experiments:
[1] = target: T1, human IL6R (R and D systems cat …); assay: ELISA; apparent, printed beside curve
[2] = target: T1, human IL6R (R and D systems cat …); assay: ELISA; apparent, printed beside curve

Binder | Kd [1] [nM] | Kd [2] [nM]
B1 | 2.2 | 
B2 |  | 19.2
